Target: T1, 417N/484K/501Y RBD mutant (SARS-CoV-2, Wuhan-Hu-1 RBD backbone …, 417N | 484K | 501Y)
T1 construct: also called RBD KEN
Experiment: BLI
Conditions: both partners purified

B1: V062 (antibody, V domains shown)
VH: QLQLQESGPGLVKPSETLSLTCTVSSGSISSSSYYWGWIRQPPGKGLEWIGSIYYSGSTYYNPSLKSRVTISVDTSKNQFSLKLSSVTAADTAVYYCARHWRENFAHAFDIWGQGTMVTVSS
VL: QSALTQPASVSGSPGQSITISCTGTSSDVGSYDLVSWFQQHPGKAPKLMIYEVTKRPSGVSNRFSGSKSGNTASLTISGLQAEDEADYYCCSYVGSSTYWVFGGGTKLTVL
notes: IgG; donor BRA15; source: recombinant monoclonal IgG, produced and purified as previously described
Kd: 1.89 nM

B2: V063 (antibody, V domains shown)
VH: QVQLVESGGGVVQPGRSLRLSCAASGFPFSSFGMHWVRQAPGKGLEWVAVISSDGSNKYYADSVKGRFTISRDNSKNTLYLQMNSLRAEDTAVYYCAKEFTYVVVTAFWGTENFDIWGQGTMVTVSS
VL: DIQMTQSPSTLSASVGDRVTITCRASQSISSWLAWYQQKPGKAPNLLIYKASALESGVPSRFSGSGSGTEFTLTISSLQPDDFATYYCQQYNSYPITFGQGTRLEIK
notes: as for B1
Kd: 3.34 nM

B3: V064 (antibody, V domains shown)
VH: EVQLVESGGGLVQPGGSLRLSCAASGLTVSRNYMRWVRQAPGKGLEWVSLIYSGGSTFYGDSVKGRFTISRDNSKNTLYLQMNSLRAEDTAVYYCARDLVRDGMDVWGQGTTVTVSS
VL: EIVMTQSPATLSVSPGERATLSCRASQSVSSNLAWYQQKPGQAPRLLIYGASTRATGIPARFSGSGSGTEFTLTISSLQSEDFAVYYCQQYNNWTFGQGTKVEIK
notes: as for B1
Kd: 1.91 nM

B4: V009 (antibody, V domains shown)
VH: EVQLVQSGAEVKKPGESLKISCKGSGYRFTSYWIGWVRQMPGKGLEWMGIIYAGDSDTRYSPSFQGQVTISVDKSISTAYLQWSSLKASDTAMYYCATTMTTGYFDYWGQGTLVTVSS
VL: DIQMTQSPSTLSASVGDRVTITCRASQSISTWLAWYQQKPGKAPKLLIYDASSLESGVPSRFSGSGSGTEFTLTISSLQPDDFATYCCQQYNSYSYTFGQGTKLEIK
notes: IgG; donor BRA13; source: recombinant monoclonal IgG, produced and purified as previously described
Kd: 1.83 nM

B5: V010 (antibody, V domains shown)
VH: QVQLQESGPGLVKPSETLSLTCTVSGGSISSYYWSWIRQPPGKGLEWIGYIYYNGSTNYNPSLKSRVTISLDTSKNQFSLKLSSVTAADTAVYYCASDYYDSSGYYYGFDYWGQGTLVTVSS
VL: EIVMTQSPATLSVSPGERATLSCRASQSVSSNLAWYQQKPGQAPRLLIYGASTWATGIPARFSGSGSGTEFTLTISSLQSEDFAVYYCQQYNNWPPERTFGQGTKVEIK
notes: as for B4
Kd: 2.11 nM

B6: V011 (antibody, V domains shown)
VH: QVQLVQSGAEVKKPGASVKVSCKASGYIFTSYDINWVRQATGQGLEWMGWMNPNSGNTGYAQKFQGRVTMTRNTSISTAYMELSSLRSEDTAVYYCARASSSLTYYFDYWGQGTLVTVSS
VL: SYELTQPPSVSVAPGKTARITCGENNIGSKSVHWYQQKPGQAPVLVVYDDSDRPSGIPERFSGSNSGNTATLTISRVEAGDEADYYCQVWDSSSDPVVFGGGTKLTVL
notes: as for B4
Kd: 6.96 nM

B7: V013 (antibody, V domains shown)
VH: QVQLVESGGGVVQPGRSLRLSCAGSGFIFSSFAMHWVRQAPGKGLEWVAVVSYDGDNKYYADSVKGRFTISRDNSKNTLYLQMDSLRPEDTAVYFCGRDEAALWIQRWYREIDFWGQGTLVTVSS
VL: QSVLTQPPSVSGTPGQRVTISCSGSSSNTGRNPVTWYQQFPGSAPKLLISRNNQRPSGVPDRFSGSKSGTSASLAISGLQSEDEADYYCAAWDDNLNGQVFGGGTKVTVL
notes: as for B4
Kd: 166 nM

B8: V014 (antibody, V domains shown)
VH: EVQLVESGGGLVQPGGSLRLSCAASGFTFSSYDMHWVRQATGKGLEWVSAIGTAGDTYYPGSVKGRFTISRENAKNSLYLQMNSLRAGDTAVYYCARGVITMVRGVIRDYYYYGMDVWGQGTTVTVSS
VL: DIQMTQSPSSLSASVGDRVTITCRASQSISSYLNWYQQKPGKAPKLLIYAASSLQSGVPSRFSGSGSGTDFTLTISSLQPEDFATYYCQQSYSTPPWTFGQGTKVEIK
notes: as for B4
Kd: 27.3 nM

B9: V015 (antibody, V domains shown)
VH: EVQLVESGGGLVQPGGSLRLSCAASGFTFNSYWMSWVRQAPGKGLEWVANIKQDGSEKYYVDSVKGRFTISRDNAKNSLYLQMNSLRAEDTAVYYCARLPTYYSGFDYWGQGTLVTVSS
VL: NFMLTQPHSVSESPGKTVTISCTGSSGSIASNYVQWYQQRPGSAPTTVIYEDNQRPSGVPDRFSGSIDSSSNSASLTISGLKTEDEADYYCQSYDSTNRGVVFGGGTKLTVL
notes: as for B4
Kd: 14.3 nM

B10: V016 (antibody, V domains shown)
VH: QVQLVESGGGVVQPGRSLRLSCAASGFTFSNYGMHWVRQAPGKGLEWVAVISYDGSNKYYADSVKGRFTISRDNSKNTLYLQMNSVRVEDTAVYYCAKGSFGYSYVHTYFDYWGQGTLVTVSS
VL: DIQMTQSPSTLSASVGDRVTITCRASQSISSWLAWYQQKPGKAPKLLIYDASSLESGVPSRFSGSGSGTEFILTISSLQPDDFATYYCQQYNSPMYTFGQGTKLEIK
notes: as for B4
Kd: 4.43 nM

B11: V017 (antibody, V domains shown)
VH: EVQLVESGGGLVQPGGSLRLSCVASGFTFSTYSMNWVRQAPGKGLEWVSYISSSSSTIYYADSVKGRFTISRDNAKSSLYLQMNSLRAEDTAVYYCASGLCGGDCPLTCWGQGTLVTVSS
VL: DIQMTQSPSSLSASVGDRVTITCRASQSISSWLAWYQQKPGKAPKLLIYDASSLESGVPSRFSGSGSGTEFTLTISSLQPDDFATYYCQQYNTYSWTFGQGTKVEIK
notes: as for B4
Kd: 27.1 nM

B12: V002 (antibody, V domains shown)
VH: EVQLVESGGGLVQPGRSLRLSCAASGFTFDEYAMHWVRQAPGKGLEWVSGSSWNSGTIGYADSVKGRFTISRDNAKNSLYLQMNSLRAEDTALYYCAKSQGDYGGNSGAGYFQHWGQGTLVTVSS
VL: SYELTQPPSVSVAPGKTARITCGGNNIGSKSVHWYQQKPGQAPMLVVYDDSDRPSGIPERFSGSNSGNTATLTISRVEAGDEADYYCQVWDSSSEVYVFGTGTKVTVL
notes: as for B4
Kd: 979 nM

B13: V019 (antibody, V domains shown)
VH: QVQLVQSGAEVKKPGSSVKVSCKASGGTFSTYTFSWVRQAPGQGLEWMGRIIPILGIANYAQKFQGRITITADKSTSTAYMELSSLRSEDTAVYYCAWGSYSYGYFVDIWGQGTMVTVSS
VL: DIVMTQTLLSLSVTPGQPASISCKSSQSLLHSDGKTYLYWYLQKPGQSPQLLIYEVSSRFSGVPDRFSGSGSGTDFTLKISRVEAEDVGVYYCMQGIQFHWTFGQGTKLEIK
notes: as for B4
Kd: 3.31 nM

B14: V020 (antibody, V domains shown)
VH: QVQLVESGGGVVQPGRSLRLSCAASGFTFSSYGMHWVRQAPGKGLEWVAVISYDGSNKYYADSVKGRFTISRDNSKNTLYLQMNSLRAEDTAVYYCAKGGWFGELLRYFDYWGQGTLVTVSS
VL: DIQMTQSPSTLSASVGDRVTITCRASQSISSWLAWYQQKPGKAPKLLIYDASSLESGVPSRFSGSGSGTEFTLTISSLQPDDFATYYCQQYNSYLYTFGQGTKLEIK
notes: as for B4
Kd: 94.8 nM

B15: V021 (antibody, V domains shown)
VH: QVQLQESGPGLVKPSQTLSLTCTVSGGSISSGSYYWSWIRQPVGKGLEWIGRIYTSGSTNYNPSLKSRVTISVDTSKNQFSLELSSVTAADRAVYYCARESSPASIPVRGVIWWFDPWGQGTLVTVSS
VL: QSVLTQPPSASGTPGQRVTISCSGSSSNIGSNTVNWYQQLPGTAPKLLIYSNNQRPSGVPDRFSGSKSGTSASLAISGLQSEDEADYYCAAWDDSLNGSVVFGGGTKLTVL
notes: IgG; donor BRA13
Kd: 32.6 nM

B16: V022 (antibody, V domains shown)
VH: EVQLVESGGGLVKPGGSLRLSCAASGFTFSSYSMNWVRQAPGKGLEWVSSISSTNNYIYNADSVKGRFTISRDNAKNSLYLQMNSLRAEDTAVYYCARDPAGRYSYGLYYFYYMDVWGKGTTVTVSS
VL: QSALTQPASVSGSPGQSITISCTGTSSDVGGYNYVSWYQQRPGKAPKLMIYDVSNRPSGVSDRFSGSKSGNTASLTISGLQAEDEADYYCTSYTSSSSLYVFGTGTKVTVL
notes: as for B4
Kd: 5.71 nM

B17: V024 (antibody, V domains shown)
VH: QVQLVESGGGVVQPGRSLRLSCAASGFTFSSYGMHWVRQAPGKGLEWVAVISYDGSNKYYADSVKGRFTISRDNSKNTLYLQMNSLRGEDTAVYYCAKAGYGYSYGYGQIDYWGQGTLVTVSS
VL: not shown
notes: IgG; donor BRA13
Kd: 33.2 nM

B18: V025 (antibody, V domains shown)
VH: QVQLVQSGAEVKKPGASVKVSCKASGYTFTSYGISWVRQAPGQGLEWMGWISVYNGKTNYAQKLQGRVTMTTDTSTSTAYMELRSLISDDTAVYYCARADRYNWDYGSSWGQGTLVTVSS
VL: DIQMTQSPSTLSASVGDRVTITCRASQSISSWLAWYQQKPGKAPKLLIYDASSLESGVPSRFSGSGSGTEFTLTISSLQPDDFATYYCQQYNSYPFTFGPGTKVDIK
notes: as for B4
Kd: 2.84 nM

B19: V026 (antibody, V domains shown)
VH: QVQLVESGGGVVQPGRSLRLSCAVSGFTFSSYGMHWVRQAPGKGLEWVAVISYEGSNKYYADSVKGRFTISRDNSKNTLYLQMNSLRAEDTAVYYCAKGGWYGSPTYYFDYWGQGTLVTVSS
VL: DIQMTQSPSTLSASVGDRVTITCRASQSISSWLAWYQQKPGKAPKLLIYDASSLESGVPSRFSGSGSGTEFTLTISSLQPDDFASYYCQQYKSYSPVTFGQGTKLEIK
notes: as for B4
Kd: 11.9 nM

From PMC9270183 (The Journal of Experimental Medicine, 2022)
